The series deals with HEK293T. The series is described as follows: plasma membrane surface immunostaining intensity (anti-HA, deep receptor scanning) (arbitrary fluorescence units); higher = higher plasma membrane expression.

± gives the uncertainty stated by the source.

The text below walks through data of the supplement of paper PMC12458215.

With “MDTGPDQSYFSGNHWFVFSVYLLTFLVGLPLNLLALVVFVGKLRCRPVAVDVLLLNLTASDLLLLLFLPFRMVEAANGMHWPLPFILCPLSGFIFFTTIYLTALFLAAVSIERFLSVAHPLWYKTRPRLGQAGLVSVACWLLASAHCSVVYVIEFSGDISHSQGTNGTCYLEFRKDQLAILLPVRLEMAVVLFVVPLIITSYCYSRLVWILGRGGSHRRQRRVAGLVAATLLNFLVCFGPYNVSHVVGYICGESPVWRIYVTLLSTLNSCVDPFVYYFSSSGFQADFHELLRRLCGLWGQWQQESSMELKEQKGGEEQRADRPAERKTSEHSQGCGTGGQVACAEN [GPR42]”, the “plasma membrane surface immunostaining intensity” value (GPCR class: A) was found to be 798 ± 40.

With “MDTSRLGVLLSLPVLLQLATGGSSPRSGVLLRGCPTHCHCEPDGRMLLRVDCSDLGLSELPSNLSVFTSYLDLSMNNISQLLPNPLPSLRFLEELRLAGNALTYIPKGAFTGLYSLKVLMLQNNQLRHVPTEALQNLRSLQSLRLDANHISYVPPSCFSGLHSLRHLWLDDNALTEIPVQAFRSLSALQAMTLALNKIHHIPDYAFGNLSSLVVLHLHNNRIHSLGKKCFDGLHSLETLDLNYNNLDEFPTAIRTLSNLKELGFHSNNIRSIPEKAFVGNPSLITIHFYDNPIQFVGRSAFQHLPELRTLTLNGASQITEFPDLTGTANLESLTLTGAQISSLPQTVCNQLPNLQVLDLSYNLLEDLPSFSVCQKLQKIDLRHNEIYEIKVDTFQQLLSLRSLNLAWNKIAIIHPNAFSTLPSLIKLDLSSNLLSSFPITGLHGLTHLKLTGNHALQSLISSENFPELKVIEMPYAYQCCAFGVCENAYKISNQWNKGDNSSMDDLHKKDAGMFQAQDERDLEDFLLDFEEDLKALHSVQCSPSPGPFKPCEHLLDGWLIRIGVWTIAVLALTCNALVTSTVFRSPLYISPIKLLIGVIAAVNMLTGVSSAVLAGVDAFTFGSFARHGAWWENGVGCHVIGFLSIFASESSVFLLTLAALERGFSVKYSAKFETKAPFSSLKVIILLCALLALTMAAVPLLGGSKYGASPLCLPLPFGEPSTMGYMVALILLNSLCFLMMTIAYTKLYCNLDKGDLENIWDCSMVKHIALLLFTNCILNCPVAFLSFSSLINLTFISPEVIKFILLVVVPLPACLNPLLYILFNPHFKEDLVSLRKQTYVWTRSKHPSLMSINSDDVEKQSCDSTQALVTFTSSSITYDLPPSSVPSPAYPVTESCHLSSVAFVPCL [LGR5]”, the “plasma membrane surface immunostaining intensity” value (GPCR class: A) came to 283 ± 25.

Turning to “MEAGNQTGFLEFILLGLSEDPELQPFIFGLFLSMYLVTVLGNLLIILAISSDSHLHTPMYFFLSNLSWVDICFSTCIVPKMLVNIQTENKAISYMDCLTQVYFSMFFPILDTLLLTVMAYDRFVAVCHPLHYMIIMNPHLCGLLVFVTWLIGVMTSLLHISLMMHLIFCKDFEIPHFFCELTYILQLACSDTFLNSTLIYFMTGVLGVFPLLGIIFSYSRIASSIRKMSSSGGKQKALSTCGSHLSVVSLFYGTGIGVHFTSAVTHSSQKISVASVMYTVVTPMLNPFIYSLRNKDVKGALGSLLSRAASCL [OR7D2]”, under “GPCR class: A (Olfactory)”, the “plasma membrane surface immunostaining intensity” value came out at 118 ± 23.

In the case of “MGKTKNTSLDAVVTDFILLGLSHPPNLRSLLFLVFFIIYILTQLGNLLILLTMWADPKLCARPMYILLGVLSFLDMWLSSVTVPLLILDFTPSIKAIPFGGCVAQLYFFHFLGSTQCFLYTLMAYDRYLAICQPLRYPVLMNGRLCTVLVAGAWVAGSMHGSIQATLTFRLPYCGPNQVDYFICDIPAVLRLACADTTVNELVTFVDVGVVAASCFMLILLSYANIVNAILKIRTTDGRRRAFSTCGSHLIVVTVYYVPCIFIYLRAGSKDPLDGAAAVFYTVVTPLLNPLIYTLRNQEVKSALKRITAG [OR10G2]”, the “plasma membrane surface immunostaining intensity” value (GPCR class: A (Olfactory)) was 111 ± 16.

As to “MSLFLSNLSTNDSSLWKENHNSTDLLNPPGTLNIYLFCLTCLMTFAALVGSIYSLISLLKMQNRTVVSMLVASWSVDDLMSVLSVTIFMFLQWPNEVPGYFQFLCTTSALMYLCQGLSSNLKATLLVSYNFYTMHRGVGSQTASRRSGQVLGVVLTVWAASLLLSALPLCGWGAFVRTPWGCLVDCSSSYVLFLSIVYALAFGLLVGLSVPLTHRLLCSEEPPRLHSNYQEISRGASIPGTPPTAGRVVSLSPEDAPGPSLRRSGGCSPSSDTVFGPGAPAAAGAEACRRENRGTLYGTRSFTVSVAQKRFALILALTKVVLWLPMMMHMVVQNVVGFQSLPLETFSFLLTLLATTVTPVFVLSKRWTHLPCGCIINCRQNAYAVASDGKKIKRKGFEFNLSFQKSYGIYKIAHEDYYDDDENSIFYHNLMNSECETTKDPQRDNRNIFNAIKVEISTTPSLDSSTQRGINKCTNTDITEAKQDSNNKKDAFSDKTGGDINYEETTFSEGPERRLSHEESQKPDLSDWEWCRSKSERTPRQRSGYALAIPLCAFQGTVSLHAPTGKTLSLSTYEVSAEGQKITPASKKIEVYRSKSVGHEPNSEDSSSTFVDTSVKIHLEVLEICDNEEALDTVSIISNISQSSTQVRSPSLRYSRKENRFVSCDLGETASYSLFLPTSNPDGDINISIPDTVEAHRQNSKRQHQERDGYQEEIQLLNKAYRKREEESKGS [GPR149]”, where the note is “GPCR class: A”, the “plasma membrane surface immunostaining intensity” value is 1060 ± 320.

“MADAQNISLDSPGSVGAVAVPVVFALIFLLGTVGNGLVLAVLLQPGPSAWQEPGSTTDLFILNLAVADLCFILCCVPFQATIYTLDAWLFGALVCKAVHLLIYLTMYASSFTLAAVSVDRYLAVRHPLRSRALRTPRNARAAVGLVWLLAALFSAPYLSYYGTVRYGALELCVPAWEDARRRALDVATFAAGYLLPVAVVSLAYGRTLRFLWAAVGPAGAAAAEARRRATGRAGRAMLAVAALYALCWGPHHALILCFWYGRFAFSPATYACRLASHCLAYANSCLNPLVYALASRHFRARFRRLWPCGRRRRHRARRALRRVRPASSGPPGCPGDARPSGRLLAGGGQGPEPREGPVHGGEAARGPE [GALR3]”: the “plasma membrane surface immunostaining intensity” value (GPCR class: A) amounted to 2680 ± 290.

Regarding “MPANFTEGSFDSSGTGQTLDSSPVACTETVTFTEVVEGKEWGSFYYSFKTEQLITLWVLFVFTIVGNSVVLFSTWRRKKKSRMTFFVTQLAITDSFTGLVNILTDINWRFTGDFTAPDLVCRVVRYLQVVLLYASTYVLVSLSIDRYHAIVYPMKFLQGEKQARVLIVIAWSLSFLFSIPTLIIFGKRTLSNGEVQCWALWPDDSYWTPYMTIVAFLVYFIPLTIISIMYGIVIRTIWIKSKTYETVISNCSDGKLCSSYNRGLISKAKIKAIKYSIIIILAFICCWSPYFLFDILDNFNLLPDTQERFYASVIIQNLPALNSAINPLIYCVFSSSISFPCREQRSQDSRMTFRERTERHEMQILSKPEFI [NPSR1]”, the “plasma membrane surface immunostaining intensity” value (GPCR class: A) came out at 457 ± 42.

Regarding “MNYPLTLEMDLENLEDLFWELDRLDNYNDTSLVENHLCPATEGPLMASFKAVFVPVAYSLIFLLGVIGNVLVLVILERHRQTRSSTETFLFHLAVADLLLVFILPFAVAEGSVGWVLGTFLCKTVIALHKVNFYCSSLLLACIAVDRYLAIVHAVHAYRHRRLLSIHITCGTIWLVGFLLALPEILFAKVSQGHHNNSLPRCTFSQENQAETHAWFTSRFLYHVAGFLLPMLVMGWCYVGVVHRLRQAQRRPQRQKAVRVAILVTSIFFLCWSPYHIVIFLDTLARLKAVDNTCKLNGSLPVAITMCEFLGLAHCCLNPMLYTFAGVKFRSDLSRLLTKLGCTGPASLCQLFPSWRRSSLSESENATSLTTF [CXCR5]”, the “plasma membrane surface immunostaining intensity” value (GPCR class: A) turned out to be 630 ± 74.

For the sequence “MSASNITLTHPTAFLLVGIPGLEHLHIWISIPFCLAYTLALLGNCTLLLIIQADAALHEPMYLFLAMLAAIDLVLSSSALPKMLAIFWFRDREINFFACLAQMFFLHSFSIMESAVLLAMAFDRYVAICKPLHYTKVLTGSLITKIGMAAVARAVTLMTPLPFLLRCFHYCRGPVIAHCYCEHMAVVRLACGDTSFNNIYGIAVAMFIVVLDLLLVILSYIFILQAVLLLASQEARYKAFGTCVSHIGAILAFYTTVVISSVMHRVARHAAPHVHILLANFYLLFPPMVNPIIYGVKTKQIRESILGVFPRKDM [OR52K2]”, under “GPCR class: A (Olfactory)”, the “plasma membrane surface immunostaining intensity” value was 441 ± 130.

In the case of “MEEENATLLTEFVLTGFLYQPQWKIPLFLAFLVIYLITIMGNLGLIAVIWKDPHLHIPMYLLLGNLAFVDAWISSTVTPKMLNNFLAKSKMISLSECKIQFFSFAISVTTECFLLATMAYDRYVAICKPLLYPAIMTNGLCIRLLILSYVGGILHALIHEGFLFRLTFCNSNIVHHIYCDTIPLSKISCTDSSINFLMVFIFSGSIQVFSIVTILVSYTFVLFAILKKKSDKGVRKAFSTCGAHLFSVSLYYGPLLFIYVGPASPQADDQDMVEPLFYTVIIPLLNPIIYSLRNKQVTVSFTKMLKKHVKVSY [OR5H1]”, where the note is “GPCR class: A (Olfactory)”, the “plasma membrane surface immunostaining intensity” value turned out to be 124 ± 20.

For the sequence “MNEDLKVNLSGLPRDYLDAAAAENISAAVSSRVPAVEPEPELVVNPWDIVLCTSGTLISCENAIVVLIIFHNPSLRAPMFLLIGSLALADLLAGIGLITNFVFAYLLQSEATKLVTIGLIVASFSASVCSLLAITVDRYLSLYYALTYHSERTVTFTYVMLVMLWGTSICLGLLPVMGWNCLRDESTCSVVRPLTKNNAAILSVSFLFMFALMLQLYIQICKIVMRHAHQIALQHHFLATSHYVTTRKGVSTLAIILGTFAACWMPFTLYSLIADYTYPSIYTYATLLPATYNSIINPVIYAFRNQEIQKALCLICCGCIPSSLAQRARSPSDV [GPR12]”, the “plasma membrane surface immunostaining intensity” value (GPCR class: A) turned out to be 1260 ± 200.

In the case of “MTTSLDTVETFGTTSYYDDVGLLCEKADTRALMAQFVPPLYSLVFTVGLLGNVVVVMILIKYRRLRIMTNIYLLNLAISDLLFLVTLPFWIHYVRGHNWVFGHGMCKLLSGFYHTGLYSEIFFIILLTIDRYLAIVHAVFALRARTVTFGVITSIVTWGLAVLAALPEFIFYETEELFEETLCSALYPEDTVYSWRHFHTLRMTIFCLVLPLLVMAICYTGIIKTLLRCPSKKKYKAIRLIFVIMAVFFIFWTPYNVAILLSSYQSILFGNDCERSKHLDLVMLVTEVIAYSHCCMNPVIYAFVGERFRKYLRHFFHRHLLMHLGRYIPFLPSEKLERTSSVSPSTAEPELSIVF [CCR3]”, under “GPCR class: A”, the “plasma membrane surface immunostaining intensity” value is 391 ± 99.

“METPNTTEDYDTTTEFDYGDATPCQKVNERAFGAQLLPPLYSLVFVIGLVGNILVVLVLVQYKRLKNMTSIYLLNLAISDLLFLFTLPFWIDYKLKDDWVFGDAMCKILSGFYYTGLYSEIFFIILLTIDRYLAIVHAVFALRARTVTFGVITSIIIWALAILASMPGLYFSKTQWEFTHHTCSLHFPHESLREWKLFQALKLNLFGLVLPLLVMIICYTGIIKILLRRPNEKKSKAVRLIFVIMIIFFLFWTPYNLTILISVFQDFLFTHECEQSRHLDLAVQVTEVIAYTHCCVNPVIYAFVGERFRKYLRQLFHRRVAVHLVKWLPFLSVDRLERVSSTSPSTGEHELSAGF [CCR1]”: the “plasma membrane surface immunostaining intensity” value (GPCR class: A) is 5560 ± 180.

For “MEEENATLLTEFVLTGFLYQPQWKIPLFLAFLVIYLITIMGNLGLIAVIWKDPHLHIPMYLLLGNLAFVDALLSSSVTLKMLINFLAKSKMISLSECKIQLFSFAISVTTECFLLATMAYDRYVAICKPLLYPAIMTNGLCIRLLILSYVGGLLHALIHEGFLFRLTFCNSNIIQHFYCDIIPLLKISYTDSSINFLMVFIFAGSIQVFTIGTVLISYIFVLYTILKKKSVKGMRKAFSTCGAHLLSVSLYYGPLAFMYMGSASPQADDQDMMESLFYTVIVPLLNPMIYSLRNKQVIASFTKMFKRNDV [OR5H14]”, the “plasma membrane surface immunostaining intensity” value (GPCR class: A (Olfactory)) is 116 ± 19.

For the sequence “MAATASPQPLATEDADSENSSFYYYDYLDEVAFMLCRKDAVVSFGKVFLPVFYSLIFVLGLSGNLLLLMVLLRYVPRRRMVEIYLLNLAISNLLFLVTLPFWGISVAWHWVFGSFLCKMVSTLYTINFYSGIFFISCMSLDKYLEIVHAQPYHRLRTRAKSLLLATIVWAVSLAVSIPDMVFVQTHENPKGVWNCHADFGGHGTIWKLFLRFQQNLLGFLLPLLAMIFFYSRIGCVLVRLRPAGQGRALKIAAALVVAFFVLWFPYNLTLFLHTLLDLQVFGNCEVSQHLDYALQVTESIAFLHCCFSPILYAFSSHRFRQYLKAFLAAVLGWHLAPGTAQASLSSCSESSILTAQEEMTGMNDLGERQSENYPNKEDVGNKSA [ACKR2]”, the “plasma membrane surface immunostaining intensity” value (GPCR class: A) came out at 6400 ± 110.
